Experimental data: article PMC10755794

Substrate: O=C(O)C(=O)Cc1ccccc1
Test: purified protein
Type: biochemical, Saccharomyces cerevisiae
Settings: ThDP, Mg2+

Row | Protein | Km | Vmax | kcat/Km
1 | Phenylpyruvate decarboxylase Aro10p (Aro10p^HJ) (Saccharomyces cerevisiae S288C; A377V/K527R) (protein) MAPVTIEKFVNQEERHLVSNRSATIPFGEYIFKRLLSIDTKSVFGVPGDFNLSLLEYLYSPSVESAGLRWVGTCNELNAAYAADGYSRYSNKIGCLITTYGVGELSALNGIAGSFAENVKVLHIVGVAKSIDSRSSNFSDRNLHHLVPQLHDSNFKGPNHKVYHDMVKDRVACSVAYLEDIETACDQVDNVIRDIYKYSKPGYIFVPADFADMSVTCDNLVNVPRISQQDCIVYPSENQLSDIINKITSWIYSSKTPAILGDVLTDRYGVSNFLNKLICKTGIWNFSTVMGKSVIDESNPTYMGQYNGKEGLKQVYEHFELCDLVLHFGVDINEINNGHYTFTYKPNAKIIQFHPNYIRLVDTRQGNEQMFKGINFVPILKELYKRIDVSKLSLQYDSNVTQYTNETMRLEDPTNGQSSIITQVHLQKTMPKFLNPGDVVVCETGSFQFSVRDFAFPSQLKYISQGFFLSIGMALPAALGVGIAMQDHSNAHINGGNVKEDYKPRLILFEGDGAAQMTIQELSTILRCNIPLEVIIWNNNGYTIERAIMGPTRSYNDVMSWKWTKLFEAFGDFDGKYTNSTLIQCPSKLALKLEELKNSNKRSGIELLEVKLGELDFPEQLKCMVEAAALKRNKK | 86.36 ± 6.18 µM | 2.11 µmol/min/mg | 595000 ± 33500 M⁻¹ s⁻¹
2 | Phenylpyruvate decarboxylase Aro10p (Aro10p^S288C) (Saccharomyces cerevisiae S288C) (protein) MAPVTIEKFVNQEERHLVSNRSATIPFGEYIFKRLLSIDTKSVFGVPGDFNLSLLEYLYSPSVESAGLRWVGTCNELNAAYAADGYSRYSNKIGCLITTYGVGELSALNGIAGSFAENVKVLHIVGVAKSIDSRSSNFSDRNLHHLVPQLHDSNFKGPNHKVYHDMVKDRVACSVAYLEDIETACDQVDNVIRDIYKYSKPGYIFVPADFADMSVTCDNLVNVPRISQQDCIVYPSENQLSDIINKITSWIYSSKTPAILGDVLTDRYGVSNFLNKLICKTGIWNFSTVMGKSVIDESNPTYMGQYNGKEGLKQVYEHFELCDLVLHFGVDINEINNGHYTFTYKPNAKIIQFHPNYIRLVDTRQGNEQMFKGINFAPILKELYKRIDVSKLSLQYDSNVTQYTNETMRLEDPTNGQSSIITQVHLQKTMPKFLNPGDVVVCETGSFQFSVRDFAFPSQLKYISQGFFLSIGMALPAALGVGIAMQDHSNAHINGGNVKEDYKPRLILFEGDGAAQMTIQELSTILKCNIPLEVIIWNNNGYTIERAIMGPTRSYNDVMSWKWTKLFEAFGDFDGKYTNSTLIQCPSKLALKLEELKNSNKRSGIELLEVKLGELDFPEQLKCMVEAAALKRNKK | 102.24 ± 2.15 µM | 2.26 µmol/min/mg | 597000 ± 20500 M⁻¹ s⁻¹
